Experimental data taken from patent US20050277167.
Entries after “also recorded” stand apart in the source; their conditions may differ.

Molecular target: [2,3-3H]-L-proline-labeled procollagen substrate

B1: chicken prolyl 3-hydroxylase 1 (chicken P3H1) (protein)
chain: AGPPGPLGPPEHSEPPLPAEPPDALFAAGAEAYARGDWPAVVLQMERALRARAAIRARSVRCRLRCANATAVVPTDGLEPTLHDLLFFRGLLRRAACLRGCGPTQPSRYRLGEELEREFRKRSPYNYLQVAYFKINKVAKAVAAAHTFFVANPEHVEMKQNLEYYQMMAGVRESDFADLEARPHMTEFRLGVRFYSEEQPAAAVLHLEKALQEYFVADTECRALCEGPYDYEGYNYLEYNADLFQAMTDHYMQVLSCKQGCVTELASQPGREKPLEDFLPSHFNYLQFAYYNNGNYEKAIECAKTYLLFFPNDEVMNQNLAYYTAVLGEDLARPIEPRKEIQAYRQRSLMEKELLFFSYDVFGIPFVDPDTWTPEEVIPKRLREKQKVERETAARISEEIGNLMKEIETLVEEKAKESAEMSKFIREGGPLVYEGASVTMNSKSLNGSQRVVVDGVLSAEECRELQRLTNAAASAGDGYRGKTSPHTPSETFYGVTVLKALKLGQEGKVPLQSAHLYYNVTEKVRHMMESYFRLEVPLHFSYSHLVCRTAIDEKQEGRSDNSHEVHVDNCILNAEALVCVKEPPAYTFRDYSAILYLNGDFEGGAFYFTELDAKTQTAEVQPQCGRAVGFSSGSENPHGVKAVTKGQRCAIALWFTLDPRHSERERVQADDLVKMLFRTEEVDLLQETSAEQEPTAATSTAGLHAAGKDEL
**Q.** With B1 as the protein, how does the “Km; prolyl 3-hydroxylase activity as release of tritiated water (THO), double reciprocal plot” value read?
**A.** a Km of 179 µl of substrate per 2 mls reaction volume; also recorded: or 89.5 µl of substrate per ml
